Assay: soluble on expression in E. coli; label from the status in PepcDB or PDB records

Sequence	soluble on expression in E. coli
MISSSLPSSNAASSSEGRITQAKDVQGFSQRSASGQTPLNQSAALSEQAVPSFRLAAQTFSSEERKEATTATTEENAAVDTTGMNVLLSATTPTETPDLAAQAQTLTQGMLNMAEKSVASFNKVNPLEIKGEAKTTSPAQANALLNTSPQQQDIQTSQTTSANARVNTSAVDFQALLNQPAQGQATTAPLNVQTSAPSAQAVSAATVAHAHTQGSEWAAVKVDTSAGKWGEQMMQVLHDRVTLQAQQSVQEAKIRLDPPDLGKLDLLVRVEGDRLSVQINANTAATREALMQVSERLRTELQEQNFVHVDVNVGADQGQERHQQQMNDEDTTIFAARESSAFQSNTTTNYSEHWLNTQA	not soluble
MSETELRKRQAQFTRELHGDDIGKKTGLSALMSKNNSAQKEAVQKYLRNWDGRTDKDAEERRLEDYNEATHSYYNVVTDFYEYGWGSSFHFSRFYKGESFAASIARHEHYLAYKAGIQRGDLVLDVGCGVGGPAREIARFTGCNVIGLNNNDYQIAKAKYYAKKYNLSDQMDFVKGDFMKMDFEENTFDKVYAIEATCHAPKLEGVYSEIYKVLKPGGTFAVYEWVMTDKYDENNPEHRKIAYEIELGDGIPKMFHVDVARKALKNCGFEVLVSEDLADNDDEIPWYYPLTGEWKYVQNLANLATFFRTSYLGRQFTTAMVTVMEKLGLAPEGSKEVTAALENAAVGLVAGGKSKLFTPMMLFVARKPENAETPSQTSQEATQ	soluble
SSDKDDIETPLLTEAAPILEDGNCEPAKNSESVDQGAKPESKSEPVVSTRKRPETKPSSDLETSKVLPIQDNVSKDVPQTRWGYWGSWGKSILSSASATVATVGQGISNVIEKAETSLGIPSPSEISTEVKYVAGETNAKENENSSPVAGAFGVFSTISTAVQSTGKSVISGGLDALEFIGKKTMDVIAEGDPGFKRTKGLMNRNATLSQVLREAKEKEEIRTSNEVTVETDKKTHYGLLFDEFQGLSHLEALEMLSQESEIKVKSILNSLSGEELETLKVELEQLKETFSLAEFCEEEEEEKKGDEDFTKDITELFSQLHVSSKPEKLARARNTAHEWIRKSLTKPLAENEEGEKQSEAENTEQVNKNSIEDIHAFAIRSLAELTACSIELFHKTAALVLHGRKQEVTAIERSQTLSQMTIVLCKELSSLSKEFTTCLTTAGVKEMADVLNPLITAVFLEASNSASYIQDAFQLLLPVLEISLIENKIESHRHELQGQKPLLEH	soluble
MSLTYQFMQPYTFKNGVTLKNRMVMSPTTTMSSFYDGHVTNDEIKFYDVRAGGPGMIIGEVANVIASGKGFEGELSIADDGDIDGLSRLANAMKRGGTKAILQIFHAGRKSNDSILRGEQPVSASAVKAVFPPDSQTPRELTAAEIDEIIVAFGEATRRAIAAGFDGVELHGANTYLLQQFFSPNSNRRTDKWGGDRDARMGFAKAVIASSQQAIDTYADRPFLLGYRISPEEIETPGIRLADSLAFVDMLGDSTVDYVHTSMGSAHRTSLNDKTDHEPILKQLVQQLAGRKPLIGVGSVEKPADAEAVLEMGADLVAMGREFIREPQWVEKIVDGDEASIRYQISPSELDELAIPRAMQDYLKGAFYSVMHFTTDPSVAVDYQNEGHHHHHH	soluble
MSLIIETPSKVILFGEHAVVYGYRAISMAIDLTSTIEIKETQEDEIILNLNDLNKSLGLNLNEIKNINPNNFGDFKYCLCAIKNTLDYLNIEPKTGFKINISSKIPISCGLGSSASITIGTIKAVSGFYNKELKDDEIAKLGYMVEKEIQGKASITDTSTITYKGILEIKNNKFRKIKGEFEEFLKNCKFLIVYAEKRKKKTAELVNEVAKIENKDEIFKEIDKVIDEALKIKNKEDFGKLMTKNHELLKKLNISTPKLDRIVDIGNRFGFGAKLTGAGGGGCVIILVNEEKEKELLKELNKEDVRIFNCRMMNEGGSHHHHHH	soluble
DPTKNLRSVDLAVVNEDEGATRNGEFNRYGDKVVKGLLDKDYLAFKQVSADEAAKGLDNGTYLFTVTIPEKFSENVNTLLADQPTKPEIILSYNDFNGTNGSVLTGGLVPKIQQAVSASISESYATKLVNGVNKLGGGLERAADGSAKLEEGSGKLKDGLAKGVAGSQKLNDGSHQLAEGTAKLADGTGQLADGASRLAAGTAKLGNGAAQIDDGVGTLVNTLIPVLTTAQAAAPQLQQAADALRAVGMVAEADRIQDLATKFDANNPDNQVNKLNKLKNGTATLRYMLSDPSSEYYGGVLKLSDGVAKAHDGAVRLNDGAHRLADGTAQLANGTQQLYDGAGRLNEGANTLATKLDEGAKNAPKVPNAEASAKQISVPIVYKENNANPVQTVVDSNDPTAKKLNGGAS	not soluble
MSLNRLSIPYSNKSLDYYFFVIQEASVKRAVLARSGEFQATNANFDNTRQLEQWQSLLLSRPSAIISDPIDSQAIVSAIRRYNREKIPVGIIDTPADGGDVAITVSFDNFQGGVMAAEEIVNRLITRYGRPKGTVLNCYGALASVAWRLRKEGMDSVFAKYPGITYLARPTDGQLEKMLSVTLSTLSEYPDLDAVHAPSDSPSRGIVTALQQKGRWKKIGEAGHVIFVNIDGEPIALKWIQDGYMDACISQDPVAYGEIAVDMIVKHALKGEAVPLGTYQDKKYFWESGEIVQGKTGPTLIIPAFVINRDNVQDPRHWASVAEKTWGIPEGHHHHHH	soluble
SETETKTLPLENASILSEGSLQEGHRLWIGNLDPKITEYHLLKLLQKFGKVKQFDFLFHKSGALEGQPRGYCFVNFETKQEAEQAIQCLNGKLALSKKLVVRWAHAQVKRYDHNKNDKILPISLEPSSSTEPAQSNLSVTAKIKAIEAKLKMMAENPDAEYPAAPVYSYFKPPDKKRTTPYSRTAWKSRR	soluble
MGSDKIHHHHHHMKILLYLEAEQFLSHSGIGRAMKHQQRALDLMGIDWTKNPEDDYDILHLNTYGFSSWKMLKKAKKAGKKVIFHGHSTKEDFQNSFIGSNIAAPFFKQYLMHFYRAADLVITPTDYSASLLRSYGIKCPILPISNGIDLTKYSRSEAKEQAFREYFSLKSDQKVVVTAALYFKRKGIDDFIKVAERMPDVTFIWFGYQNLWTIPGWIRRIVKKNHPKNVLFPGYIKGDIFEGAMSSADAFFFPSREETEGIVVLEALASHQKTVVRDIPVYHGWLDSTCVSMATDVEGFVNQLQDVLDGKVDKTKEAYQVAESRTIEKVAQQLADAYQQTLEL	not soluble
MYSKILGTGSYLPSQVRTNADLEKMVETSDEWIVARTGIRERRIAADNETVADMAFFAAQNAINMAGIDKHDIDMIIVATTSASHTFPSAACQVQGKLGIKGCPAFDLAAACSGFMYALSIADQHVKSGMCKHVLVIGADALSKTCDPTDRSTIILFGDGAGAVVVGASNEPGILSTHIHADGEFGDLLSLEVPVRGGDSDKWLHMAGNEVFKVAVTQLSKLVVDTLKANNMHKSELDWLVPHQANYRIISATAKKLSMSLDQVVITLDRHGNTSAATVPTALDEAVRDGRIQRGQMLLLEAFGGGFTWGSALVKF	not soluble
MLQCIFLISDSGEVMLEKQLTGHRVDRSICAWFWDQYISQGDSFKALPVIASPTHYLFQIVRDGITFLACSQVEMPPLMAIEFLCRVADVLSEYLGGLNEDLIKDNFIIVYELLDEMIDNGFPLTTEPSILKEMIAPPNLVSKMLSVVTGNASNVSDTLPSGAGSCVPWRPTDPKYSSNEVYVDLVEEMDAIVNRDGELVKCEIYGEVQMNSQLTGFPDLTLSFANPSILEDMRFHPCVRYRPWESHQVLSFVPPDGEFKLMSYRVKKLKNTPVYVKPQITSDSGTCRISVLVGIRSDPGKTIESITLSFQLPHCVSSADLSSNHGTVTILSNKTCTWTIGRIPKDKTPCLSGTLALEPGLERLHVFPTFKLGFKIMGIALSGLRIEKLDLQTIPPRLYKGFRAQTRAGEFDVRL	soluble
GELFIKELLWMLRHQKDIFNNLARQFQKEVLCPNKCGVMSQTLIWCLKCEKQLHICRKSLDCGERHIEVHRSEDLVLDCLLSWHRASKGLTDYSFYRVWENSSETLIAKGKEPYLTKSMVGPEDAGNYRCVLDTINQGHATVIRYDVTVLPPKHSEENQPP	not soluble
MVLFEKPGKENTRKTLEIAIQKASELSSKKLLIASATGYSARMALEMIPEDMKLVVVTHHAGFEEPDTQEFDEELRKLLKEKGHDVLTATHALSAGERSLRRKFGGIYPLEIIANTLRMFSEGVKVGVEITLMAADAGLVKTSELVVACGGTESGLDSAIVVKPANSPNLFDLKITEILCKPLIS	soluble
MPSFDIVSEITLHEVRNAVENANRVLSTRYDFRGVEAVIELNEKNETIKITTESDFQLEQLIEILIGSCIKRGIEHSSLDIPAESEHHGKLYSKEIKLKQGIETEMAKKITKLVKDSKIKVQTQIQGEQVRVTGKSRDDLQAVIQLVKSAELGQPFQFNNFRD	soluble
MADINPNHTIYVNNLNEKVKKDELKRSLHMVFTQFGEIIQLMSFRKEKMRGQAHIVFKEVSSASNALRALQGFPFYGKPMRIQYAREDSDVISRAKGTFVEKRQKSTKIAKKPYEKPAKNGKSAAEPTQKEPQETDGPGLPNNILFCSNIPEGTEPEQIQTIFSQFPGLREVRWMPNTKDFAFIEYESEDLSEPARQALDNFRITPTQQITVKFASK	not soluble
MKNESIKIFQKKKQVILEKWITIQSQDQGLNNDLITNEDLRVQSEELLYTFIDNLTDNNIENPDSRDFENVLDILSSISISRAKQGYSPRETGFYVYSLKEALLSVLNEEIKDSSVLYTQSMAINKLLDSFTISTFETFIKGREDVIFRQTDEITQISTPVIRVWDGILALPIIGTLDSSRTQVVMESLLQEIVDTGSSIAILDISGVPAVDSLVAQHLIKTVSATRLMGAECIISGIRPEIAQTVVHLGIDLSTIITKATLASALKTAFVMLNLEVNKKQRNKTV	not soluble
MLMLRSPFSDSNVLDHFLDEITGSVQFPYWRNADHNSFNFSDNIGEIVNDESKFSVQLDVSHFKPEDLKIELDGRELKIEGIQEKKSEHGYSKRSFSKMILLPEDVDLTSVKSAISNEGKLQIEAPKKTNSSRSIPINFVAKH	not soluble
MGSDKIHHHHHHMTLATMKLQILSDLHIDSYVRQSHPIGHIPKTDADIVLVAGDTANSDIGMPWLQEQAARLQVPLITIAGNHEYFNEDVLHFDKKLATWDNYDSESKQGVQFLQCQYIDIGEVRILGCTLWTDYQYQANEDTMVAALRFMRDYKQIYAGSELFSPEVSMQIHAKQRQWLKQALITAKALGKKTVVMSHHSISPLSVSEKYANLPSNAAFVSDLSQWMYEDWAPALWVHGHTHEAFDYHIHKTRVIVNPRAYPNEVSSTALAFAWDRVIDIG	not soluble
MAELRQVQVDIQQPGGIRELVQREAGDQVRGQDSFPGPDIRRVYQEVRYERRGKLICLIMAGGLGSRMNRPEKALIEVHGEALVDRTIRCMNGICSDIYALIDPSMERLQGKLRSVNVKVLAKRRGGYIEDLNHAMHSIGKFPILVIPGDIFIFNCSAFLDAVRRGMLAEANVVSFTDAGQYTGISIFNAQSGSYQDIDLNGSVANINTPEDLRAVIERLRTSEKLDGSAGHADG	not soluble
MHFELNQATHCKNHVVIHNELSPGIILNIACRKGSIDDKPTRFHKLNFKDPSYVIEFEDNYPNDETWYCLLSHGTRPKYWYDIQVYRQGIQPKCNQLRLWIARMDGIWFTRRYESPPGHVLDWKI	not soluble

— the DeepSol protein solubility set
